T1: PUF4 RNA-binding domain (Saccharomyces cerevisiae, UniProt P25339 537-888)
T1 sequence: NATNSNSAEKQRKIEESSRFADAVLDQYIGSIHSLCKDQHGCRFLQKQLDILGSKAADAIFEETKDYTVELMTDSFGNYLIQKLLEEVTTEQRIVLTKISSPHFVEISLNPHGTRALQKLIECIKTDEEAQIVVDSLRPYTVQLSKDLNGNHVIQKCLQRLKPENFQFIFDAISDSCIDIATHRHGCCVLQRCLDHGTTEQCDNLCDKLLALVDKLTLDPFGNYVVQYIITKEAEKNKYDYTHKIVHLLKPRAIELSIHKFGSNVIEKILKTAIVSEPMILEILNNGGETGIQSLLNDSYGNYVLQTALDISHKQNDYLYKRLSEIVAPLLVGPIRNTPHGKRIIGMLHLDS


What follows are binders tested against T1, PUF4 RNA-binding domain (assay: Mg; RNA-MaP; 20 mM Na-HEPES pH 7.4, 30 mM KOAc, 0.75 mM MgCl2, 0.1% Tween-20, 5% glycerol, 0.1 mg/mL BSA, 2 mM DTT; 25 C; 0.0125-409.6 nM protein). Conditions: tags: N-His6-TEV cleaved; C-SNAP kept, Cy3B-labelled; label: tethered on chip by stalled RNA polymerase.

| Binder | Kd [nM] |
| --- | --- |
| UCUCUUUGUAUUCCUAUCUCUU (ssRNA) [Ib_S1_P5E.1_K5.1_C5.1_H5.1_A5.1_[A7C]_F5.1_[T8C]_T5.1] | 17.5 |
| UCUCUUUGUAUUGCUAUCUCUU (ssRNA) [Ib_S1_P5E.1_K5.1_C5.1_H5.1_A5.1_[A7G]_F5.1_[T8C]_T5.1] | 15.4 |
| Id_ii_S2_P5E.3_K5.2_C5.2_[C-2T]_[T-1A]_H5.2_A5.1_F5.1_T5.2_[T11A] (ssRNA) RNA: UUUGAUUAAUAUGAUAUCGUUCUUUCUUAUAUAUUAUUAAAUUCUUUCUCGAUAUCAUAUUAAUCUUU | 22.6 |
| Id_ii_S2_P5E.3_K5.2_C5.2_[C-2T]_[T-1A]_H5.2_A5.1_F5.1_T5.2_[A12C] (ssRNA) RNA: UUUGAUUAAUAUGAUAUCGUUCUUUCUUAUAUAUUAUUAUCUUCUUUCUCGAUAUCAUAUUAAUCUUU | 10.7 |
| Id_ii_S2_P5E.3_K5.2_C5.2_[C-2T]_H5.2_A5.1_F5.1_T5.2_[T11G]_[A12T] (ssRNA) RNA: UUUGAUUAAUAUGAUAUCGUUCUUUCUUUUAUAUUAUUAGUUUCUUUCUCGAUAUCAUAUUAAUCUUU | 442 |
| Id_ii_S2_P5E.3_K5.2_C5.2_[C-2T]_H5.2_A5.1_F5.1_T5.2_[A12T] (ssRNA) RNA: UUUGAUUAAUAUGAUAUCGUUCUUUCUUUUAUAUUAUUAUUUUCUUUCUCGAUAUCAUAUUAAUCUUU | 130 |
| Id_ii_S2_P5E.3_K5.2_C5.2_[C-2A]_[T-1C]_H5.2_A5.1_F5.1_T5.2_[T11A]_[A12T] (ssRNA) RNA: UUUGAUUAAUAUGAUAUCGUUCUUUCUACUAUAUUAUUAAUUUCUUUCUCGAUAUCAUAUUAAUCUUU | 207 |
| Id_ii_S2_P5E.3_K5.2_C5.2_[C-2T]_H5.2_A5.1_F5.1_T5.2_[T11A]_[A12T] (ssRNA) RNA: UUUGAUUAAUAUGAUAUCGUUCUUUCUUUUAUAUUAUUAAUUUCUUUCUCGAUAUCAUAUUAAUCUUU | 374 |
| Id_ii_S2_P5E.3_K5.2_C5.2_[C-2T]_H5.2_A5.1_F5.1_T5.2_[T11C] (ssRNA) RNA: UUUGAUUAAUAUGAUAUCGUUCUUUCUUUUAUAUUAUUACAUUCUUUCUCGAUAUCAUAUUAAUCUUU | 131 |
| Id_ii_S2_P5E.3_K5.2_C5.2_[C-2A]_[T-1C]_H5.2_A5.1_F5.1_T5.2_[T11C]_[A12T] (ssRNA) RNA: UUUGAUUAAUAUGAUAUCGUUCUUUCUACUAUAUUAUUACUUUCUUUCUCGAUAUCAUAUUAAUCUUU | 98.6 |
| Id_ii_S2_P5E.3_K5.2_C5.2_[C-2T]_[T-1A]_H5.2_A5.1_F5.1_T5.2_[A12T] (ssRNA) RNA: UUUGAUUAAUAUGAUAUCGUUCUUUCUUAUAUAUUAUUAUUUUCUUUCUCGAUAUCAUAUUAAUCUUU | 19.2 |
| Id_ii_S2_P5E.3_K5.2_C5.2_[C-2A]_[T-1C]_H5.2_A5.1_F5.1_T5.2_[T11C] (ssRNA) RNA: UUUGAUUAAUAUGAUAUCGUUCUUUCUACUAUAUUAUUACAUUCUUUCUCGAUAUCAUAUUAAUCUUU | 162 |
| Id_ii_S2_P5E.3_K5.2_C5.2_[C-2A]_[T-1C]_H5.2_A5.1_F5.1_T5.2_[A12T] (ssRNA) RNA: UUUGAUUAAUAUGAUAUCGUUCUUUCUACUAUAUUAUUAUUUUCUUUCUCGAUAUCAUAUUAAUCUUU | 174 |
| Id_ii_S2_P5E.3_K5.2_C5.2_[C-2T]_H5.2_A5.1_F5.1_T5.2_[T11C]_[A12C] (ssRNA) RNA: UUUGAUUAAUAUGAUAUCGUUCUUUCUUUUAUAUUAUUACCUUCUUUCUCGAUAUCAUAUUAAUCUUU | 66.4 |
| Id_ii_S2_P5E.3_K5.2_C5.2_[C-2T]_H5.2_A5.1_F5.1_T5.2_[T11G]_[A12C] (ssRNA) RNA: UUUGAUUAAUAUGAUAUCGUUCUUUCUUUUAUAUUAUUAGCUUCUUUCUCGAUAUCAUAUUAAUCUUU | 219 |
| Id_ii_S2_P5E.3_K5.2_C5.2_[C-2T]_H5.2_A5.1_F5.1_T5.2_[T11C]_[A12G] (ssRNA) RNA: UUUGAUUAAUAUGAUAUCGUUCUUUCUUUUAUAUUAUUACGUUCUUUCUCGAUAUCAUAUUAAUCUUU | 152 |
| Id_ii_S2_P5E.3_K5.2_C5.2_[C-2T]_H5.2_A5.1_F5.1_T5.2_[A12C] (ssRNA) RNA: UUUGAUUAAUAUGAUAUCGUUCUUUCUUUUAUAUUAUUAUCUUCUUUCUCGAUAUCAUAUUAAUCUUU | 156 |
| Id_ii_S2_P5E.3_K5.2_C5.2_[C-2A]_[T-1C]_H5.2_A5.1_F5.1_T5.2_[T11A] (ssRNA) RNA: UUUGAUUAAUAUGAUAUCGUUCUUUCUACUAUAUUAUUAAAUUCUUUCUCGAUAUCAUAUUAAUCUUU | 319 |
| Id_ii_S2_P5E.3_K5.2_C5.2_[C-2A]_[T-1C]_H5.2_A5.1_F5.1_T5.2_[T11A]_[A12C] (ssRNA) RNA: UUUGAUUAAUAUGAUAUCGUUCUUUCUACUAUAUUAUUAACUUCUUUCUCGAUAUCAUAUUAAUCUUU | 102 |

Reference: paper PMC9352680, “A comprehensive thermodynamic model for RNA binding by the Saccharomyces cerevisiae Pumilio protein PUF4”
